Experimental data from patent US20230265199A1.
Positions count from the first letter of the chain named. Names may count otherwise.

B1: Trap Z (Human, "full" extracellular domain NRP1-His, VEGF165-Low, E319K/D320K mutations) (receptor)
chain: FRNDKCGDTIKIESPGYLTSPGYPHSYHPSEKCEWLIQAPDPYQRIMINFNPHFDLEDRDCKYDYVEVFDGENENGHFRGKFCGKIAPPPVVSSGPFLFIKFVSDYETHGAGFSIRYELFKRGPECSQNYTTPSGVIKSPGFPEKYPNSLECTYIVFAPKMSEIILEFESFDLEPDSNPPGGMFCRYDRLEIWDGFPDVGPHIGRYCGQKTPGRIRSSSGILSMVFYTDSAIAKEGFSANYSVLQSSVSEDFKCMEALGMESGEIHSDQITASSQYSTNWSAERSRLNYPENGWTPGKKSYREWIQVDLGLLRFVTAVGTQGAISKETKKKYYVKTYKIDVSSNGEDWITIKEGNKPVLFQGNTNPTDVVVAVFPKPLITRFVRIKPATWETGISMRFEVYGCKITDYPCSGMLGMVSGLISDSQITSSNQGDRNWMPENIRLVTSRSGWALPPAPHSYINEWLQIDLGEEKIVRGIIIQGGKHRENKVFMRKFKIGYSNNGSDWKMIMDDSKRKAKSFEGNNNYDTPELRTFPALSTRFIRIYPERATHGGLGLRMELLGCEVEAPTAGPTTPNGNLVDECDDDQANCHSGTGDDFQLTGGTTVLATEKPTVIDSTIQSEFPTYGFNCEFGWGSHKTFCHWEHDNHVQLKWSVLTSKTGPIQDHTGDGNFIYSQADENQKGKVARLVSPVVYSQNSAHCMTFWYHMSGSHVGTLRVKLRYQKPEEYDQLVWMAIGHQGDHWKEGRVLLHKSLKLYQVIFEGEIGKGNLGGIAVDDISINNHISQEDCAKPADLDKKNPEIKIDETGSTPGYEGEGEGDKNISRKPGNVLKTLDPRSGSKENLYFQGHHHHHH
B2: Trap R (Human, NRP1-His-Δc-VEGF low) (receptor)
chain: B1 chain with Y276A, K298E, K299D
B3: Trap AC (Human, "full" extracellular domain NRP1-His-VEGF-low, D320K mutation) (receptor)
chain: B1 chain with K298E
B4: Trap M (Human, NRP1-His-Δb2c-short) (receptor)
chain: FRNDKCGDTIKIESPGYLTSPGYPHSYHPSEKCEWLIQAPDPYQRIMINFNPHFDLEDRDCKYDYVEVFDGENENGHFRGKFCGKIAPPPVVSSGPFLFIKFVSDYETHGAGFSIRYELFKRGPECSQNYTTPSGVIKSPGFPEKYPNSLECTYIVFAPKMSEIILEFESFDLEPDSNPPGGMFCRYDRLEIWDGFPDVGPHIGRYCGQKTPGRIRSSSGILSMVFYTDSAIAKEGFSANYSVLQSSVSEDFKCMEALGMESGEIHSDQITASSQYSTNWSAERSRLNYPENGWTPGEDSYREWIQVDLGLLRFVTAVGTQGAISKETKKKYYVKTYKIDVSSNGEDWITIKEGNKPVLFQGNTNPTDVVVAVFPKPLITRFVRIKPATWETGISMRFEVYGCRSGSKENLYFQGHHHHHH

molecular target: Recombinant human SEMA3A Fc chimera (R&D Systems) (human) (UniProt Q14563); experiment: plate saturation binding; trap coated, SEMA3A-FC titrated, HRP anti-human IgG chemiluminescence, non-linear fit

Kd [nM]	Molecule
0.8	Trap G (Human, "full" extracellular domain NRP1-His) (from UniProt O14786 22-856) (receptor)
1.05	Trap O (Human, NRP1-His-Δc-short) (from UniProt O14786 22-583) (receptor)
4.44	B1
6.15	B2
4	B3
0.95	B4
